Measured values as given in doi:10.1101/2023.11.02.565342.
Substitutions are numbered along the chain they refer to.

How the values were obtained:
[1] = molecular target: HSP70 (Spodoptera frugiperda (endogenous in Sf9)); experiment: native MS
TOPOVIBLΔC25 (monomer) [2] = molecular target: T1, TOPOVIBLΔC25 (monomer) (Mus musculus, UniProt J3QMY9 1-554); experiment: fluorescence anisotropy
T1 sequence: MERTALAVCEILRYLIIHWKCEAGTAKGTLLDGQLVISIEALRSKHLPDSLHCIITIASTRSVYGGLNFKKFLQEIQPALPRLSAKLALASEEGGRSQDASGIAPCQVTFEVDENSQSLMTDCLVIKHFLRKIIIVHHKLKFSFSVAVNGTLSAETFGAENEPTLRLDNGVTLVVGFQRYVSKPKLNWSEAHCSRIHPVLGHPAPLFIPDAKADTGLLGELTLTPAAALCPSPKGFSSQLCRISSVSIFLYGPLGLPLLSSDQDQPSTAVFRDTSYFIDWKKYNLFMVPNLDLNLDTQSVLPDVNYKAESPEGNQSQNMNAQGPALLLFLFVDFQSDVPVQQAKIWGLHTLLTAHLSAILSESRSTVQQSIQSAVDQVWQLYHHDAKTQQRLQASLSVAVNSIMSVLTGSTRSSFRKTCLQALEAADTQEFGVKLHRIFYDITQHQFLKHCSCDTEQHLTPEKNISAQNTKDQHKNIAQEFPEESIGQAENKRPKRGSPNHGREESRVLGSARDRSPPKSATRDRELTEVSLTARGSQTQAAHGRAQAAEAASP

TOPOVIBLΔC25 K281E K282E = molecular target: T2, TOPOVIBLΔC25 K281E K282E (Mus musculus, UniProt J3QMY9 1-554, K281E;K282E); experiment: fluorescence anisotropy
T2 sequence: T1 sequence with K281E, K282E

TOPOVIBLΔC25 (monomer) [3] = molecular target: T1, TOPOVIBLΔC25 (monomer); experiment: fluorescence anisotropy; remark: listed apart in the source
TOPOVIBLΔC25 (monomer) [4] = molecular target: T1, TOPOVIBLΔC25 (monomer); experiment: competition

HSP70 (natural protein)
stoichiometry N [1]: 2

B1: 2B20 dsDNA (dsDNA)
DNA 1: GCTACCACCATCATGTCTTC
DNA 2: GAAGACATGATGGTGGTAGC
Kd (TOPOVIBLΔC25 (monomer) [2]): 1610 nM

B2: 2B39 dsDNA (dsDNA)
DNA 1: CTTTCCAGAAGCTACCACCATCATGTCTTCTACCACTGT
DNA 2: ACAGTGGTAGAAGACATGATGGTGGTAGCTTCTGGAAAG
Kd (TOPOVIBLΔC25 (monomer) [2]): 650 nM
binding signal (TOPOVIBLΔC25 K281E K282E): 3 mutant/wild type Kd ratio

B3: 2B60 dsDNA (dsDNA)
DNA 1: AGAGATGGCCCTTTCCAGAAGCTACCACCATCATGTCTTCTACCACTGTGCACTAATATA
DNA 2: TATATTAGTGCACAGTGGTAGAAGACATGATGGTGGTAGCTTCTGGAAAGGGCCATCTCT
Kd (TOPOVIBLΔC25 (monomer) [2]): 900 nM

B4: 2B70 dsDNA (dsDNA)
DNA 1: AGACAAGAGATGGCCCTTTCCAGAAGCTACCACCATCATGTCTTCTACCACTGTGCACTAATATAGTGTG
DNA 2: CACACTATATTAGTGCACAGTGGTAGAAGACATGATGGTGGTAGCTTCTGGAAAGGGCCATCTCTTGTCT
Kd (TOPOVIBLΔC25 (monomer) [2]): 1500 nM

CTTTCCAGAAGCTACCACCATCATGTCTTCTACCACTGT (ssDNA) [ss2B39 (labeled)]
Kd (TOPOVIBLΔC25 (monomer) [2]): 310 nM

B5: U40 dsDNA (dsDNA)
DNA 1: CTATTGAAAAAGGAAGAGTATGAGTATTCAACATTTCCGC
DNA 2: GCGGAAATGTTGAATACTCATACTCTTCCTTTTTCAATAG
binding result (TOPOVIBLΔC25 (monomer) [3]): binds

ACAGTGGTAGAAGACATGATGGTGGTAGCTTCTGGAAAG (ssDNA) [ss2B39 (unlabeled competitor)]
binding result (TOPOVIBLΔC25 (monomer) [4]): binds
